Substrate in this series: OC[C@H]1OC(O)[C@H](O)[C@@H](O)[C@@H]1O
Description: purified protein. In kind it is biochemical, Aspergillus niger. Particulars: apparent Km of the whole cascade with free HRP, glucose 50-175 µM (all below Km), TMB 2 mM, 0.2 M acetate buffer (pH 4 in the standard assay), 20-23 °C, free enzymes.

B1: glucose oxidase (GOx), Aspergillus niger type VIII (Aspergillus niger) (protein)
chain: LPHYIRSNGIEASLLTDPKDVSGRTVDYIIAGGGLTGLTTAARLTENPNISVLVIESGSYESDRGPIIEDLNAYGDIFGSSVDHAYETVELATNNQTALIRSGNGLGGSTLVNGGTWTRPHKAQVDSWETVFGNEGWNWDNVAAYSLQAERARAPNAKQIAAGHYFNASCHGVNGTVHAGPRDTGDDYSPIVKALMSAVEDRGVPTKKDFGCGDPHGVSMFPNTLHEDQVRSDAAREWLLPNYQRPNLQVLTGQYVGKVLLSQNGTTPRAVGVEFGTHKGNTHNVYAKHEVLLAAGSAVSPTILEYSGIGMKSILEPLGIDTVVDLPVGLNLQDQTTATVRSRITSAGAGQGQAAWFATFNETFGDYSEKAHELLNTKLEQWAEEAVARGGFHNTTALLIQYENYRDWIVNHNVAYSELFLDTAGVASFDVWDLLPFTRGYVHILDKDPYLHHFAYDPQYFLNELDLLGQAAATQLARNISNSGAMQTYFAGETIPGDNLAYDADLSAWTEYIPYHFRPNYHGVGTCSMMPKEMGGVVDNAARVYGVQGLRVIDGSIPPTQMSSHVMTVFYAMALKISDAILEDYASMQ
notes: commercial native enzyme, Merck/Sigma Aldrich, type VIII; free in solution, together with HRP
As to B1, the Km is 1198 µM.

(Values after PMC9864776, “Synthesis of Novel Polymer-Assisted Organic-Inorganic Hybrid Nanoflowers and Their Application in Cascade Biocatalysis” (Molecules, 2023).)
